Laboratory results taken from patent publication US20250263504A1 (Takeda / Millennium, published 2025).

T1: Factor XIIa (FXIIa) (UniProt P00748 20-372; P00748 373-615, limits assumed)
T1 construct: the description speaks of human FXIIa; also called active Factor XII
T1 sequence (looked up) 1: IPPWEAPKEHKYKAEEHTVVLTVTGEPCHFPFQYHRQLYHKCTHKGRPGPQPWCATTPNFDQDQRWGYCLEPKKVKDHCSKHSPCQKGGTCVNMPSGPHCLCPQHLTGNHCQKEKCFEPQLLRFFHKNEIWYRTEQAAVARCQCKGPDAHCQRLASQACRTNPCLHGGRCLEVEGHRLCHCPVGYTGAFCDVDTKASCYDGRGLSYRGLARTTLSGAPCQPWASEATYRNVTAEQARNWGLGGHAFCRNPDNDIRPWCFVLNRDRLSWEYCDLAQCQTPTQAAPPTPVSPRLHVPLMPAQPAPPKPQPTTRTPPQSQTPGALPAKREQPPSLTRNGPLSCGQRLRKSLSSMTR
T1 sequence (looked up) 2: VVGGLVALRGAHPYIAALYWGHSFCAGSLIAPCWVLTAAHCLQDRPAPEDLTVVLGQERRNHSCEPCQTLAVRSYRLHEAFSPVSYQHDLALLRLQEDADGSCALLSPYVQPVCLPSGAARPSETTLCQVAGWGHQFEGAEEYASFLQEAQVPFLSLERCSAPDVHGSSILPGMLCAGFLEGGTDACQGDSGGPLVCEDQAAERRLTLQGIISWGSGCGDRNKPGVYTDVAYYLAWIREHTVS

B1: 620I-X0136-C05 (bispecific antibody)
heavy: not shown
light: DIQMTQSPSTLSASVGDRVTITCRASQSISSWLAWYQQKPGKAPKLLIYKASTLESGVPSRFSGSGSGTEFTLTISSLQPDDFATYYCQQYNTYWTFGQGTKVEIKRTVAAPSVFIFPPSDEQLKSGTASVVCLLNNFYPREAKVQWKVDNALQSGNSQESVTEQDSKDSTYSLSSTLTLSKADYEKHKVYACEVTHQGLSSPVTKSFNRGEC
notes: also called 620I-X136-C05
B2: 620I-X0136-A09 (bispecific antibody, human IgG1, kappa)
heavy: not shown
light: B1 light
notes: also called 620I-X136-A09
B3: 620I-X0138-A06 (bispecific antibody)
heavy: not shown
light: B1 light
notes: also called 620I-X138-A06
B4: 620I-X0139-G02 (bispecific antibody)
heavy: not shown
light: B1 light
notes: also called 620I-X139-G02
B5: 620I-X0138-A02 (bispecific antibody)
heavy: not shown
light: B1 light
notes: also called 620I-X138-A02
B6: 620I-X0138-B10 (bispecific antibody)
heavy: not shown
light: B1 light
notes: also called 620I-X138-B10
B7: 620I-X0136-A02 (bispecific antibody)
heavy: not shown
light: B1 light
notes: also called 620I-X136-A02
B8: 620I-X0136-A01 (bispecific antibody)
heavy: not shown
light: B1 light
notes: also called 620I-X136-A01
B9: 620I-X0136-A11 (bispecific antibody)
heavy: not shown
light: B1 light
notes: also called 620I-X136-A11
B10: 620I-X0142-E09 (bispecific antibody)
heavy: not shown
light: B1 light
notes: also called 620I-X142-E09
B11: 620I-X0136-G10 (bispecific antibody)
heavy: not shown
light: B1 light
notes: also called 620I-X136-G10
B12: 620I-X0138-C12 (bispecific antibody)
heavy: not shown
light: B1 light
notes: also called 620I-X138-C12
B13: 620I-X0138-D04 (bispecific antibody)
heavy: not shown
light: B1 light
notes: also called 620I-X138-D04
B14: 620I-X0136-A04 (bispecific antibody)
heavy: not shown
light: B1 light
notes: also called 620I-X136-A04
B15: 620I-X0136-C04 (bispecific antibody)
heavy: not shown
light: B1 light
notes: also called 620I-X136-C04
B16: 620I-X0136-C07 (bispecific antibody)
heavy: not shown
light: B1 light
notes: also called 620I-X136-C07
B17: 620I-X0137-B08 (bispecific antibody)
heavy: not shown
light: B1 light
notes: also called 620I-X137-B08
B18: 620I-X0138-B06 (bispecific antibody)
heavy: not shown
light: B1 light
notes: also called 620I-X138-B06
B19: 620I-X0138-A08 (bispecific antibody)
heavy: not shown
light: B1 light
notes: also called 620I-X138-A08
B20: 620I-X0136-C09 (bispecific antibody)
heavy: not shown
light: B1 light
notes: also called 620I-X136-C09
B21: 620I-X0138-A01 (bispecific antibody)
heavy: not shown
light: B1 light
notes: also called 620I-X138-A01
B22: 620I-X0136-A05 (bispecific antibody)
heavy: not shown
light: B1 light
notes: also called 620I-X136-A05
B23: 620I-X0136-F11 (bispecific antibody)
heavy: not shown
light: B1 light
notes: also called 620I-X136-F11
B24: 620I-X0136-D12 (bispecific antibody)
heavy: not shown
light: B1 light
notes: also called 620I-X136-D12
B25: 620I-X0138-D03 (bispecific antibody)
heavy: not shown
light: B1 light
notes: also called 620I-X138-D03
B26: 620I-X0138-B07 (bispecific antibody)
heavy: not shown
light: B1 light
notes: also called 620I-X138-B07
B27: 620I-X0136-B11 (bispecific antibody)
heavy: not shown
light: B1 light
notes: also called 620I-X136-B11
B28: 620I-X0136-C11 (bispecific antibody)
heavy: not shown
light: B1 light
notes: also called 620I-X136-C11
B29: 620I-X0137-A10 (bispecific antibody)
heavy: not shown
light: B1 light
notes: also called 620I-X137-A10
B30: 620I-X0136-B07 (bispecific antibody)
heavy: not shown
light: B1 light
notes: also called 620I-X136-B07
B31: 620I-X0136-B02 (bispecific antibody)
heavy: not shown
light: B1 light
notes: also called 620I-X136-B02
B32: 620I-X0138-C07 (bispecific antibody)
heavy: not shown
light: B1 light
notes: also called 620I-X138-C07
B33: 620I-X0136-E07 (bispecific antibody)
heavy: not shown
light: B1 light
notes: also called 620I-X136-E07
B34: 620I-X0136-C08 (bispecific antibody)
heavy: not shown
light: B1 light
notes: also called 620I-X136-C08
B35: 620I-X0136-A12 (bispecific antibody)
heavy: not shown
light: B1 light
notes: also called 620I-X136-A12
B36: 620I-X0142-A11 (bispecific antibody)
heavy: not shown
light: B1 light
notes: also called 620I-X142-A11
B37: 620I-X0136-C01 (bispecific antibody)
heavy: not shown
light: B1 light
notes: also called 620I-X136-C01
B38: 620I-X0136-F07 (bispecific antibody)
heavy: not shown
light: B1 light
notes: also called 620I-X136-F07
B39: 620I-X0136-D05 (bispecific antibody)
heavy: not shown
light: B1 light
notes: also called 620I-X136-D05
B40: 620I-X0136-G04 (bispecific antibody)
heavy: not shown
light: B1 light
notes: also called 620I-X136-G04
B41: 620I-X0142-A10 (bispecific antibody)
heavy: not shown
light: B1 light
notes: also called 620I-X142-A10
B42: 620I-X0136-C12 (bispecific antibody)
heavy: not shown
light: B1 light
notes: also called 620I-X136-C12
B43: 620I-X0138-A12 (bispecific antibody)
heavy: not shown
light: B1 light
notes: also called 620I-X138-A12
B44: 620I-X0136-E05 (bispecific antibody)
heavy: not shown
light: B1 light
notes: also called 620I-X136-E05
B45: 620I-X0136-G08 (bispecific antibody)
heavy: not shown
light: B1 light
notes: also called 620I-X136-G08
B46: 620I-X0137-C08 (bispecific antibody)
heavy: not shown
light: B1 light
notes: also called 620I-X137-C08
B47: 620I-X0136-G05 (bispecific antibody)
heavy: not shown
light: B1 light
notes: also called 620I-X136-G05
B48: 620I-X0136-D06 (bispecific antibody)
heavy: not shown
light: B1 light
notes: also called 620I-X136-D06

Each binder was assayed against T2, plasma kallikrein (pKal) (UniProt P03952 20-390; P03952 391-638, limits assumed) (assay: enzyme inhibition, corrected Ki,app).
T2 construct: the description speaks of human pKal; also called active pKal
T2 sequence (P03952 20-390 limits assumed, form in doubt, chain 1 of 2): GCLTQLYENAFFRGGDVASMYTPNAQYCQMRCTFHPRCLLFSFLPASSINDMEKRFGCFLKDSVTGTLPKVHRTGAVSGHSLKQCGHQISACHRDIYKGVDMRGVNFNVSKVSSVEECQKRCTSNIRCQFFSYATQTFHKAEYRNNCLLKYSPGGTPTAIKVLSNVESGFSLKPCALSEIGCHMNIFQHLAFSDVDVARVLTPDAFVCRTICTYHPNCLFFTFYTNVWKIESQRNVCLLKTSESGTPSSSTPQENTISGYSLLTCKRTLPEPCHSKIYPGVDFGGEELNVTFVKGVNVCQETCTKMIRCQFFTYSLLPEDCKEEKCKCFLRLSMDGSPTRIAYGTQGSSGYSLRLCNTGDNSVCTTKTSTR
T2 sequence (P03952 391-638 limits assumed, form in doubt, chain 2 of 2): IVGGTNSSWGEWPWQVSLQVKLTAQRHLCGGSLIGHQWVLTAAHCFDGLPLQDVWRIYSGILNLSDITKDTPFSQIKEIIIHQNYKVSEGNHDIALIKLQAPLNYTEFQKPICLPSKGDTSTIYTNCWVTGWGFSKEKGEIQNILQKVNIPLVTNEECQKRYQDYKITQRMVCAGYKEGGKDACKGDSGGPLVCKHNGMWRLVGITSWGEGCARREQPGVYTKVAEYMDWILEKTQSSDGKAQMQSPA

| Binder | Ki |
| --- | --- |
| B1 | 0.15 nM |
| B2 | 0.19 nM |
| B3 | 0.145 nM |
| B4 | 0.171 nM |
| B5 | 0.206 nM |
| B6 | 0.075 nM |
| B7 | 0.176 nM |
| B8 | 0.135 nM |
| B9 | 0.199 nM |
| B10 | 0.174 nM |
| B11 | 0.171 nM |
| B12 | 0.267 nM |
| B13 | 0.215 nM |
| B14 | 0.171 nM |
| B15 | 0.205 nM |
| B16 | 0.182 nM |
| B17 | 0.312 nM |
| B18 | 0.33 nM |
| B19 | 0.92 nM |
| B20 | 0.173 nM |
| B21 | 0.154 nM |
| B22 | 0.179 nM |
| B23 | 0.201 nM |
| B24 | 0.179 nM |

| Binder | Ki |
| --- | --- |
| B25 | 0.079 nM |
| B26 | 0.246 nM |
| B27 | 0.172 nM |
| B28 | 0.154 nM |
| B29 | 0.195 nM |
| B30 | 0.168 nM |
| B31 | 0.21 nM |
| B32 | 0.196 nM |
| B33 | 0.19 nM |
| B34 | 0.216 nM |
| B35 | 0.234 nM |
| B36 | 0.158 nM |
| B37 | 0.173 nM |
| B38 | 0.183 nM |
| B39 | 0.055 nM |
| B40 | 0.179 nM |
| B41 | 0.175 nM |
| B42 | 0.217 nM |
| B43 | 0.405 nM |
| B44 | 0.158 nM |
| B45 | 0.176 nM |
| B46 | 0.153 nM |
| B47 | 0.179 nM |
| B48 | 0.176 nM |

Each binder was assayed against T1, Factor XIIa (FXIIa) (assay: enzyme inhibition, corrected Ki,app).

| Binder | Ki |
| --- | --- |
| B1 | 0.058 nM |
| B4 | 0.161 nM |
| B5 | 0.288 nM |
| B6 | 0.058 nM |
| B7 | 0.136 nM |
| B8 | 0.224 nM |
| B9 | 0.193 nM |
| B10 | 0.163 nM |
| B11 | 0.028 nM |
| B12 | 0.697 nM |
| B13 | 0.079 nM |
| B14 | 0.23 nM |
| B15 | 0.189 nM |
| B16 | 0.699 nM |
| B17 | 0.409 nM |
| B18 | 0.405 nM |
| B19 | 0.357 nM |
| B20 | 0.09 nM |
| B21 | 0.465 nM |
| B22 | 0.111 nM |
| B23 | 0.235 nM |
| B24 | 0.063 nM |
| B25 | 0.344 nM |

| Binder | Ki |
| --- | --- |
| B26 | 0.135 nM |
| B27 | 0.184 nM |
| B28 | 0.038 nM |
| B29 | 0.205 nM |
| B30 | 0.099 nM |
| B31 | 2.86 nM |
| B32 | 0.314 nM |
| B33 | 0.312 nM |
| B34 | 1.23 nM |
| B35 | 0.304 nM |
| B36 | 0.195 nM |
| B37 | 0.957 nM |
| B38 | 0.167 nM |
| B39 | 0.013 nM |
| B40 | 0.107 nM |
| B41 | 0.389 nM |
| B42 | 1.57 nM |
| B43 | 1.93 nM |
| B44 | 0.172 nM |
| B45 | 0.028 nM |
| B46 | 0.034 nM |
| B47 | 0.1 nM |
| B48 | 0.084 nM |
